We go through 1 molecule from PMC10245680 (bioRxiv, 2023).

For assay [1], the target named is vUNG expressed in MHV68-infected 3T12 cells (Murid herpesvirus 4 (MHV68 wild type …, UniProt P88984)). As to the kind of experiment: flow cytometry on cells.
Assay [2] has as its target recombinant murine uracil DNA glycosylase (UNG) (Mus musculus, UniProt P97931). The assay can be described thus: ELISA.
Assay [3] concerns the target viral UNG (vUNG) expressed in transfected 293 cells (Murid herpesvirus 4 (MHV68), isolate …, UniProt P88984). As to the kind of experiment: immunostaining of cells or tissue.

recombinant murine uracil DNA glycosylase (UNG), sequence (P97931 whole entry): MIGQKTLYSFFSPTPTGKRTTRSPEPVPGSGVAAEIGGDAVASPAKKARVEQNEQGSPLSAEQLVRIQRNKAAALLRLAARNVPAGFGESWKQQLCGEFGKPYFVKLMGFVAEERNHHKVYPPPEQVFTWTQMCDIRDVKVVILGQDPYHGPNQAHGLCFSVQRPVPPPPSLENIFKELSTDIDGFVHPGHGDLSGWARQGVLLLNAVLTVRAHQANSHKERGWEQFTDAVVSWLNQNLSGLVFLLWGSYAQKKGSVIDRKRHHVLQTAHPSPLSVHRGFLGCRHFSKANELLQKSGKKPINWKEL

B1: recombinant mouse anti-vUNG antibody (against MHV68 ORF46 / viral uracil DNA glycosylase) (antibody, V domains shown)
VH: QVQLQQPGAELVKPGASVKMSCKASGYTFTSYWITWVKQRPGQGLEWIGDIYPGSGSTKYNEKFKSKATLTVDTSSSTAYMQLSSLTSEDSAVYYCARLDYYYAMDYWGQGTSVTVSS
VL: DIVMTQSQKFMSTSVGDRVSVTCKASQNVGTNVAWYQQKPGQSPKALIYSASYRYSGVPDRFTGSGSGTDFTLTISNVPSEDLAEYFCQQYNNYPLTFGSGTKLEIK
Turning to B1, the binding result is “binds” in assay [1], “no binding” in assay [2] and “binds” in assay [3].
